Measurements reported in US20220233554.

Molecular target: OCT4 wild-type in cells (human) (UniProt Q01860)
Assay: cell_activity
Conditions: for binding signal: transcription activity relative to OBS1+OBS2

Chain of UniProt Q01860 (Q01860 whole entry): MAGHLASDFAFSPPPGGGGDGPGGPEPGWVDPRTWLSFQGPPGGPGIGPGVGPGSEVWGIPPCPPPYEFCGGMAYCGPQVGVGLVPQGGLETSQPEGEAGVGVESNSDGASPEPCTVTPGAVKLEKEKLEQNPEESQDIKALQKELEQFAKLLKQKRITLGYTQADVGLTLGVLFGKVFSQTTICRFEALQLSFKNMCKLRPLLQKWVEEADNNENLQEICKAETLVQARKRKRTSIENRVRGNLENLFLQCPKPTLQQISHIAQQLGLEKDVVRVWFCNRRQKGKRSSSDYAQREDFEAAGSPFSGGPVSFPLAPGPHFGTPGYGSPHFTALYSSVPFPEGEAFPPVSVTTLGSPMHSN

MYC OBS2 single-site reporter
binding signal: 40%

MYC OBS1 single-site reporter
binding signal: 60%

MYC -1/-1899 promoter reporter
activity (luciferase reporter in HEK293FT vs vector control): 24.4 fold
